Source: article doi:10.1101/2023.09.21.558797 (2023)

B1: GST-Dyn1xA-PRR (full-length proline-rich region of Dynamin 1 splice variant xA, 746-864) [rat] / Endophilin A1 (endogenous, rat brain synaptosomes) [rat (endogenous in rat brain synaptosomes)] (parent complex)
chain 1: NTTTVSTPMPPPVDDSWLQVQSVPAGRRSPTSSPTPQRRAPAVPPARPGSRGPAPGPPPAGSALGGAPPVPSRPGASPDPFGPPPQVPSRPNRAPPGVPSRSGQASPSRPESPRPPFDL
chain 2: MSVAGLKKQFHKATQKVSEKVGGAEGTKLDDDFKEMERKVDVTSRAVMEIMTKTIEYLQPNPASRAKLSMINTMSKIRGQEKGPGYPQAEALLAEAMLKFGRELGDDCNFGPALGEVGEAMRELSEVKDSLDMEVKQNFIDPLQNLHDKDLREIQHHLKKLEGRRLDFDYKKKRQGKIPDEELRQALEKFDESKEIAESSMFNLLEMDIEQVSQLSALVQAQLEYHKQAVQILQQVTVRLEERIRQASSQPRREYQPKPRMSLEFATGDGTQPNGGLSHTGTPKPAGVQMDQPCCRALYDFEPENEGELGFKEGDIITLTNQIDENWYEGMLHGQSGFFPINYVEILVALPH
B2: GST-Dyn1xA-PRR (full-length proline-rich region of Dynamin 1 splice variant xA, 746-864) [rat] / Amphiphysin 1 (endogenous, rat brain synaptosomes) [rat (endogenous in rat brain synaptosomes)] (parent complex)
chain 1: B1 chain 1
chain 2: MADIKTGIFAKNVQKRLNRAQEKVLQKLGKADETKDEQFEEYVQNFKRQEAEGTRLQRELRGYLAAIKGMQEASMKLTESLHEVYEPDWYGREDVKMVGEKCDVLWEDFHQKLVDGSLLTLDTYLGQFPDIKNRIAKRSRKLVDYDSARHHLEALQSSKRKDESRISKAEEEFQKAQKVFEEFNVDLQEELPSLWSRRVGFYVNTFKNVSSLEAKFHKEIAVLCHKLYEVMTKLGDQHADKAFSIQGAPSDSGPLRIAKTPSPPEEASPLPSPTASPNHTLAPASPAPVRPRSPSQTRKGPPVPPLPKVTPTKELQQENIINFFEDNFVPEINVTTPSQNEVLEVKKEETLLDLDFDPFKPDVTPAGSAAATHSPMSQTLPWDLWTTSTDLVQPASGGSFNDFTQPQDTSLFTMQTDQNMAETEQALPTEPQAEEPPTTAAAPTAGLDLGLEMEEPKEEAAIPPGTDAGETVGTEGSTGEEAEAEKAALPAGEGESPEGAKIDVESTELASSESPQAAELEAGAPQEKVIPSVVIEPASNHEGEEHQETTTGTETREATEDVAPQGPAGEKQELATEPTPLDSQAATPAPAGAVDASLSAGDAAQELPPGFLYKVETLHDFEAANSDELTLQRGDVVLVVPSDSEADQDAGWLVGVKESDWLQYRDLATYKGLFPENFTRHLE

Variants of: B1
Assay: GST pull-down, densitometry of western blots; n=2; parent: 100; read off a plot

For chain 1 S106E, chain 1 S112E, which percent of parent is on record?
Its percent of parent is ~53%.

chain 1 S29E, chain 1 S33E was tested. Which percent of parent did it give?
The percent of parent was ~37%.

Variants of: B2
Assay: as above

How did the percent of parent turn out when chain 1 NTTTVSTPMPPPVDDSWLQVQSVPAGRRSPTSSPTPQRRAPAVPPARPGSRGPAPGPPPAGSALGGAPPVPSRPGASPDPFGPPPQVPSRPNRAPPGVPSRSGQAEPSRPEEPRPPFDL was run?
The percent of parent was ~90%.

With chain 1 NTTTVSTPMPPPVDDSWLQVQSVPAGRREPTSEPTPQRRAPAVPPARPGSRGPAPGPPPAGSALGGAPPVPSRPGASPDPFGPPPQVPSRPNRAPPGVPSRSGQASPSRPESPRPPFDL as the variant, how does the percent of parent read?
The percent of parent was ~98%.
